The values that follow come from patent US20060160761A1, “Regulation of vascular endothelium using BMX tyrosine kinase” (priority 1994, published 2006).

In one data set the test system is endogenous Bmx. The data set is described as follows: Kinase activity of endogenous Bmx immunoprecipitated from stimulated HUVECs, with or without PI-3 kinase inhibitors. It counts as cell-based, human. Conditions: HUVECs starved overnight; hVEGF and VEGF-B 60 ng/ml for 5 min, IL-3 200 ng/ml for 30 min. The text has this:
The polyclonal antibody (Ab) against human Bmx was produced against the Tec Homology (TH) domain by Dr. Toshio Suda (amino acids 151-169, NH2-[…]—COOH (SEQ. ID. NO.: 4)). The monoclonal anti-hemagglutinin (HA)-epitope Ab, phosphotyrosine Ab, and anti-CD31 Ab were from Berkeley Antibody Company (Richmond, Calif.), from Transduction Laboratories and from DAKO, respectively. GCSF growth factor was a kind gift from Dr. Riitta Alitalo, while VEGF was obtained from R&D Systems, Minneapolis, Minn. VEGF-B was produced in Drosophila cells by Terhi Karpanen. Mouse IL-3 was obtained from Calbiochem Novabiochem. Phosphatidyl inositol-3 kinase inhibitors Wortmannin and LY294002, were both from Sigma. For inhibition of PI3K activity, 100 nM for 30 min of Wortmannin and 100 μM of LY294002 for 30 min, were used.
Cell culture and transfections. 293T cells were grown in Dulbecco's Modified Eagle's Medium (DMEM), Human umbilical vein endothelial cells (HUVECs) were maintained in Hy-clone 199 medium. […]
(§1) In vitro substrate immunocomplex kinase assay was performed as follows. […] The filters were fixed and washed one time in 10% TCA 8% sodium pyrophosphate, 3 times in 5% TCA and 2 times in ethanol after which radioactivity was measured using Pharmacia Wallac 1410 Liquid Scintillation Counter. […] The gel was dried and Bmx autokinase activity was detected by exposure on film.

The subject of another data set is Bmx. In words: In vitro substrate immunocomplex kinase assay of Bmx immunoprecipitated from stimulated BmxHA expressing 32Dcl3 cells. It counts as cell-based, mouse. The note with it: BmxHA expressing 32Dcl3 pools, starved 14 hours in IL-3 and serum free media; IL-3 200 ng/ml for 30 min, hGCSF 100 ng/ml for 5 min; vs unstimulated. Here is the method: Cell culture and transfections. 293T cells were grown in Dulbecco's Modified Eagle's Medium (DMEM), Human umbilical vein endothelial cells (HUVECs) were maintained in Hy-clone 199 medium. […] All media were supplemented with 10% fetal calf serum, glutamine and antibiotics, the Hy-clone 199 medium additionally with endothelial cell growth supplement-ECGS (Upstate Biotechnology). Where indicated, cells were stimulated with growth factors, hGCSF 100 ng/ml, hVEGF and VEGF-B 60 ng/ml, for 5 min or with mIL-3 or hIL-3, 200 ng/ml, for 30 min.
Transfections and generation of stable BmxHA and BmxHA K444R expressing pools (and clones). Transient co-transfections of293T cells were done using the Calcium Phosphate Transfection kit (GIBCO) according to manufacturer's instructions. The cells were transfected with Bmx-HA expression plasmid and the receptor plasmid or empty vector (PCI-Neo or pcDNAZ3.1) in the ration of 1:4. […]
as §1

“Also recorded” adds a separate entry of the source.

With VEGF, the “endogenous Bmx kinase activity after stimulation” value with endogenous Bmx is reported as “increased endogenous Bmx activity; also recorded: activated”.

B1: VEGF-B: VEGF-B produced in Drosophila cells; ligand of Flt1 receptor (protein, UniProt P49765 22-207, looked up)
Vascular endothelial growth …: PVSQPDAPGHQRKVVSWIDVYTRATCQPREVVVPLTVELMGTVAKQLVPSCVTVQRCGGCCPDDGLECVPTGQHQVRMQILMIRYPSSQLGEMSLEEHSQCECRPKKKDSAVKPDRAATPHHRPQPRSVPGWDSAPGAPSPADITHPTPAPGPSAHAAPSTTSALTPGPAAAAADAAASSVAKGGA
On to B1, for which the “endogenous Bmx kinase activity after stimulation” value in the data set on endogenous Bmx is given as “increased endogenous Bmx activity; also recorded: activated”.

B2: GCSF: GCSF growth factor (granulocyte growth factor), gift from Dr. Riitta Alitalo (protein)
chain: TPLGPASSLPQSFLLKCLEQVRKIQGDGAALQEKLCATYKLCHPEELVLLGHSLGIPWAPLSSCPSQALQLAGCLSQLHSGLFLYQGLLQALEGISPELGPTLDTLQLDVADFATTIWQQMEELGMAPALQPTQGAMPAFASAFQRRAGGVLVASHLQSFLEVSYRVLRHLAQP
Turning to B2, the “increase of Bmx kinase activity” value in the data set on Bmx is given as “around 1.7 fold”.
